From PMC2082129, “A Switch in the Mechanism of Communication between the Two DNA-Binding Sites in the SfiI Restriction Endonuclease” (Journal of Molecular Biology, 2007)
Substitutions are numbered along the chain they refer to. In names and notes the source's numbering stands.

Target: the molecule itself
Test: AUC; sedimentation equilibrium at 20 °C; 2.5 μM enzyme (tetramer) with 2.5 μM HEX-21 DNA duplex; AUC buffer (10 mM Tris-HCl, 50 mM NaCl, 10 mM CaCl2, 1 mM DTT, pH 7.9); absorbance of the HEX label at 539 nm; 10,000, 15,000 and 25,000 rpm, global fit to a single species; oligomeric state of the protein bound to DNA

B1: SfiI restriction endonuclease, wild type (enzyme)
chain: MHQDYRELSLDELESVEKQTLRTIVQALQQYSKEAKSIFETTAADSSGEVIVLAEDITQYALEVAETYPINRRFAGFIDYKRVRWLPSPHGLLPQVLLVDAKASTEKNRDTLQRSQLPMDAEFRNTSSGEVVTMEAGVIPHLMLQSANDGVLPAVTTSIFVHFYYRELKDVEGRYRELKSIYVLSLPHARLKQRYNPDPDTSFFGAGKHSPARGEVARIRVYFDRLKEACPWRLQELHYSADSEYTQPRWRDLNDAGHEVTKEFLFLER
notes: SfiI restriction endonuclease, expressed from the SfiI restriction gene on pRRS-SfiIR+; tetramer of identical subunits, Mr of the tetramer printed as 124,176; The plasmid carries the SfiI restriction gene, and the printed tetramer Mr of 124,176 fits four whole subunits; In the AUC the protein stood with the 21-bp DNA duplex HEX-21 and Ca2+; also called wt SfiI; SfiI endonuclease; source: E. coli …
  stoichiometry N: 4

B2: SfiI restriction endonuclease, Y68F mutant (enzyme)
chain: B1 chain with Y68F
notes: SfiI restriction endonuclease with Tyr68 replaced by Phe (QuikChange mutagenesis of pRRS-SfiIR+); Same construct as m1 apart from Y68F; also called Y68F protein; source: E. coli ER2238 (transformed with pSYX33-SfiIM+ and a derivative of pRRS-SfiIR+), purified as described previously
  stoichiometry N: 4
